Assay results from patent US20190359687A1 (Bayer, published 2019).

Columns and labels:
[1] = molecular target: T1, human glycophorin A on human red blood cells or red blood cell membranes (human, UniProt P02724 20-150); assay: ELISA, Fab on coated human RBC membranes
T1 construct: whole, on cells; also called hRBC; human RBC membranes
T1 sequence (looked up): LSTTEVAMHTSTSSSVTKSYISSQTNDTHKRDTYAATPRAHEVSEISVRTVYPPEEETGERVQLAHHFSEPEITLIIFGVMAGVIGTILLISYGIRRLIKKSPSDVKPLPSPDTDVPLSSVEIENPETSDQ

[2] = molecular target: T2, Cynomolgus monkey recombinant glycophorin A ectodomain (Cynomolgus monkey); assay: ELISA, Fab on coated recombinant cyno GPA ectodomain
T2 construct: extracellular domain

[3] = molecular target: T1, human glycophorin A on human red blood …; assay: SPR (Biacore), Fab over human RBC membranes, 1:1 fit; * slight deviation possible
Method: (§1) Kinetic analysis of the antibody binding to human red blood cell membranes was also performed using surface plasmon resonance (SPR) using a Biacore instrument. In this assay membranes prepared from human red blood cells were attached to a L1 sensor matrix and antibodies were flowed over the RBC membranes.

[4] = molecular target: T3, recombinant human glycophorin A ectodomain protein (human, UniProt P02724 20-91); assay: ELISA, Fab on coated recombinant human GPA ectodomain
T3 construct: 72 amino acids of the extracellular region; also called Hu-rec GPA
T3 sequence: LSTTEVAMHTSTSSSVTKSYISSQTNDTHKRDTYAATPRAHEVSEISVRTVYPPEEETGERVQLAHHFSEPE

[5] = molecular target: T4, native human glycophorin A protein (human, UniProt P02724 20-150); assay: ELISA, Fab on coated native human GPA
T4 construct: mature; also called Hu-nat GPA
T4 sequence (looked up): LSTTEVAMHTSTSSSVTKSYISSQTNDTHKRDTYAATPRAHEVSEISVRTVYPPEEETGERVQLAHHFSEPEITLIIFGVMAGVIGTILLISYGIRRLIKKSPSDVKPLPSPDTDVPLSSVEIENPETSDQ

[6] = molecular target: T5, Cynomolgus monkey glycophorin A on Cynomolgus monkey red blood cells or red blood cell membranes (Cynomolgus monkey); assay: ELISA, Fab on coated cyno RBC membranes
T5 construct: whole, on cells; also called Cyno RBC; Cynomolgus monkey RBC membranes

[7] = molecular target: T1, human glycophorin A on human red blood …; assay: SPR (Biacore), Fab over human RBC membranes, 1:1 fit;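 note: human RBC membrane preparations captured on an L1 sensor surface, with antibody passed over them as analyte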
Method: as §1

Binder	binding in ELISA relative to parental Fab [1]	binding in ELISA relative to parental Fab [2]	Kd [3]	koff [3]	kon [3]	binding in ELISA relative to parental Fab [4]	binding in ELISA relative to parental Fab [5]	binding in ELISA relative to parental Fab [6]	Kd [7]	koff [7]	kon [7]
TPP-4935, humanized 6C12 parental Fab (Hu6C12-24) (Fab, V domains shown, also called parent Fab; TPP-4935 (Parental)) VH: EVQLVQSGAEVKKPGASVKVSCKASGYTFTTYTIHWVRQAPGQGLEWIGYINPSSDYTRYNPKFKDRVTLTTDKSTSTAYMELRSLRSDDTAVYYCQTGTRDYWGQGTTVTVSS VL: DIQLTQSPSFLSASVGDRVTITCSAASSVSYIYWFQQKPGKAPKLLIYSTSTLPSGVPSRFSGSGSGTEYTLTISSLQPEDFATYYCHQRNSFPFTFGQGTKLEIKR	1 relative to parental Fab	1 relative to parental Fab	167 nM	0.031 s⁻¹	190000 M⁻¹ s⁻¹	1 relative to parental Fab	1 relative to parental Fab	–	–	–	–
TPP-5907, humanized and germlined 6C12 Fab; VL: (S24R, A26S, S49A, P54Q, F95Y); VH: (I48M, S54G, D56G, D66G, L70M, T72R) (Fab, V domains shown) VH: EVQLVQSGAEVKKPGASVKVSCKASGYTFTTYTIHWVRQAPGQGLEWMGYINPGSGYTRYNPKFKGRVTMTRDKSTSTAYMELRSLRSDDTAVYYCQTGTRDYWGQGTTVTVSS VL: DIQLTQSPSFLSASVGDRVTITCRASSSVSYIYWFQQKPGKAPKLLIYATSTLQSGVPSRFSGSGSGTEYTLTISSLQPEDFATYYCHQRNSFPYTFGQGTKLEIKR	90.1 relative to parental Fab	1.4 relative to parental Fab	–	–	–	6.9 relative to parental Fab	12.3 relative to parental Fab	1.9 relative to parental Fab	0.8 nM	0.004 s⁻¹	4.9e+06 M⁻¹ s⁻¹
